Patent US8821943B2, “Methods and compositions for targeted delivery of therapeutic agents” (Board of Regents of the University of Nebraska, priority 2006, dated 2014)

Test: Particle size, polydispersity and zeta-potential by dynamic light scattering
Type: physicochemical
Protocol: Nanoparticle carrier particles were formed by the methods of the preceding Example, and characterized as follows. The particle size and the zeta-potential were measured using Zeta Plus zeta-potential analyzer (Brookhaven Instruments Ltd., New York, N.Y.), which employs the dynamic light scattering technique for particle size measurement. The particle size and zeta-potential measurements were made after 1:1000 dilution of particle stock in filtered deionized water. Further, the particles were visualized using a transmission electron microscope (TEM). The carbon-coated grids were floated on a suspension droplet of plain or functionalized nanoparticles on a flexible plastic film (Parafilm, Pechiney Plastic Packaging, Neenah, Wis.) to allow the adsorption of nanoparticles onto the grid. After drying the particles, uranyl acetate was added as a negative stain to the carbon grid and allowed to react with the particles. This procedure makes the particles electron dense, allowing their visualization using an electron microscope. The particles were photographed using EM410 Phillips electron microscope (Eindhoven, The Netherlands) set at 60 kV and a magnification of 153000×.
Characterization of particles: The particle size and the zeta-potential were measured using ZetaPlus® zeta-potential analyzer, Brookhaven Instruments Ltd. (New York, N.Y.), which employs the dynamic light scattering technique for particle size measurement. The particle size and zeta-potential measurements were carried out after 1:1000 dilution of particle stock in filtered deionized water before lyophilization in filtered deionized water. The effective diameter of conjugated nanoparticles was higher than that of unconjugated nanoparticles.
Particle Size Analysis: Particle size and zeta-potential of the nanoparticles before and after conjugation following lyophilization were measured in double distilled water (100 μl of particle/1 ml of water) using dynamic light scattering (DLS). After lyophilization the plasmid loaded particles were weighed (1 mg) into glass Kimble tubes. To each tube, 1 ml of double distilled water was added and vortexed at high speed (Vortex Genie, Scientific Industries, Bohemia, N.Y.) till the particles were resuspended. The particle size and zeta potential was determined using dynamic light scattering after dilution (1:10 in double distilled water) (Brookhaven Instruments Corp., Holtsville, N.Y.). Nanoparticle size after lyophilization was 210.4±0.68 nm and zeta potential was −32.85±0.87 mV. Nanoparticle size and zeta potential was measured after conjugation with deslorelin and transferrin. Similarly, the unconjugated nanoparticles were also treated under the same conditions as with the conjugated nanoparticles (the conjugation protocol as mentioned above).
Transport studies were conducted in bovine nasal tissue. Bovine nasal tissue was obtained from freshly slaughtered cattle, and different regions (MTA, MTP, ITP) were prepared as described in Example 13. Nanoparticles coupled to deslorelin or transferring via aldehyde sulfate moieties were prepared as described in Example 3. The nanoparticle size was measured using a Zeta Plus Analyzer (Brookhaven Instruments Limited, UK). Particle size was analyzed before and after ligand conjugation in deionized filtered water.

## Transferrin-AS: transferrin-aldehyde sulphate-conjugated polystyrene nanoparticles
Table 2, polystyrene nanoparticles
  Zeta potential: −20.62 ± 0.82 mV
Table 2, polystyrene nanoparticles, 1:1000 dilution in filtered deionized water, includes hydrodynamic layer, n = 3
  Measured Diameter: 67.5 ± 1.0 nm
Table 6
  Zeta potential: −20.62 ± 0.82 mV
Table 6, 1:1000 dilution in filtered deionized water
  Effective diameter: 67.5 ± 1.0 nm
